Publication PMC6030200 (2018)

T1: recombinant human integrin α6β4 (human, UniProt P23229;P16144)
T1 chain 1: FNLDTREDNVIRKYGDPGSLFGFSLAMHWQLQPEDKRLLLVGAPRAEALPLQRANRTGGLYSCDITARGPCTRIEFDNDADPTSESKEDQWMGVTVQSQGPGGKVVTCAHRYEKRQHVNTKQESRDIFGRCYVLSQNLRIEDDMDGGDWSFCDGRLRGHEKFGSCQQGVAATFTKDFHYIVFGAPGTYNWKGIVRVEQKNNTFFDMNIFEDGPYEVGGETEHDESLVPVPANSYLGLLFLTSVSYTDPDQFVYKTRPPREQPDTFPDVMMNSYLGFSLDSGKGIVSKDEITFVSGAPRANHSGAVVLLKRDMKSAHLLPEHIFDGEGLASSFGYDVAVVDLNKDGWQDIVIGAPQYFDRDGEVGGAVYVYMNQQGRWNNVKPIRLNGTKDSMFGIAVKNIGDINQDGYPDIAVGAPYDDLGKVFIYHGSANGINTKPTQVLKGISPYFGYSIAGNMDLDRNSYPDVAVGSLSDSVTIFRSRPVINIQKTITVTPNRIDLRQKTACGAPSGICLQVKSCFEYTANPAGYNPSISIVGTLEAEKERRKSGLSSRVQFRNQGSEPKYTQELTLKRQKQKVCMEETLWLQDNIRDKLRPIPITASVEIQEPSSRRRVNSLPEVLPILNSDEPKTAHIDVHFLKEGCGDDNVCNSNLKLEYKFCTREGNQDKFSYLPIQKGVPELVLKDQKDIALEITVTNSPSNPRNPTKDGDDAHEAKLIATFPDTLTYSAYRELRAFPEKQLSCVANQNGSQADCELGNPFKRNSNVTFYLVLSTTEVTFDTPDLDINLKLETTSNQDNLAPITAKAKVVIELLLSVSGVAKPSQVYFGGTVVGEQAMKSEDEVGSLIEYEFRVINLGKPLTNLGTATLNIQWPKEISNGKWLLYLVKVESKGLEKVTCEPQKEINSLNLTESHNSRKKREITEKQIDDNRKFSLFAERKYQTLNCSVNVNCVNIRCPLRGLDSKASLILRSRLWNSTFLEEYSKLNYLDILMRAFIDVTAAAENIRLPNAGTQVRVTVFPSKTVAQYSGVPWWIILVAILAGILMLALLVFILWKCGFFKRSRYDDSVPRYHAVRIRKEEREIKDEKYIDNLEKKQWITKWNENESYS
T1 chain 2: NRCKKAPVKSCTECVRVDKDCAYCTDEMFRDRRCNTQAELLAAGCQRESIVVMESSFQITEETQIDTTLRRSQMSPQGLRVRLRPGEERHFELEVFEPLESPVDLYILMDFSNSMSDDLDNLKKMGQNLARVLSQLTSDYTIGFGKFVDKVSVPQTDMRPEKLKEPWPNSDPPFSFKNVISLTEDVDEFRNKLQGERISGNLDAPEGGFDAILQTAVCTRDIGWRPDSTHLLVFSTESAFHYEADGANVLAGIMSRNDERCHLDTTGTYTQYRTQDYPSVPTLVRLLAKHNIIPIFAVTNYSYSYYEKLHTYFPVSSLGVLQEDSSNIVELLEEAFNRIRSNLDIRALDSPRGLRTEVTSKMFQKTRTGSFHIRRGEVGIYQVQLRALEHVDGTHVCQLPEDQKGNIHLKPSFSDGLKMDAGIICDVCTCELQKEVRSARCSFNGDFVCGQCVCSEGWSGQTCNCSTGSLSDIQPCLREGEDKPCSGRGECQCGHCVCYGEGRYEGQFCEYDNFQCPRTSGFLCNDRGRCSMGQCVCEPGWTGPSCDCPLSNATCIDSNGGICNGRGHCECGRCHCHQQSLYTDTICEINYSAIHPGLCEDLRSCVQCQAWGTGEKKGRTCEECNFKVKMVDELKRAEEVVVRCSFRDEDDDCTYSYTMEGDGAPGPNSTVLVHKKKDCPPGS

B1: HAdV-41 penton base protein, recombinant, soluble (natural protein)
chain: MRRAVGVPPVMAYAEGPPPSYESVMGSADSPATLEALYVPPRYLGPTEGRNSIRYSELAPLYDTTRVYLVDNKSADIASLNYQNDHSNFQTTVVQNNDFTPAEAGTQTINFDERSRWGADLKTILRTNMPNINEFMSTNKFKARLMVEKKNKETGLPRYEWFEFTLPEGNYSETMTIDLMNNAIVDNYLEVGRQNGVLESDIGVKFDTRNFRLGWDPVTKLVMPGVYTNEAFHPDIVLLPGCGVDFTQSRLSNLLGIRKRLPFQEGFQIMYEDLEGGNIPALLDVAKYEASIQKAKEEGKEIGDDTFATRPQDLVIEPVAKDSKNRSYNLLPNDQNNTAYRSWFLAYNYGDPKKGVQSWTLLTTADVTCGSQQVYWSLPDMMQDPVTFRPSTQVSNYPVVGVELLPVHAKSFYNEQAVYSQLIRQSTALTHVFNRFPENQILVRPPAPTITTVSENVPALTDHGTLPLRSSISGVQRVTITDARRRTCPYVHKALGIVAPKVLSSRTF
B2: HAdV-40 penton base protein, recombinant, soluble (natural protein)
chain: MRRAVGVPPVMAYAEGPPPSYESVMETADLPATLQALHVPPRYLGPTEGRNSIRYSELAPLYDTTRVYLVDNKSADIASLNYQNDHSNFQTTVVQNNDFTPTEAGTQTINFDDRSRWGGDLKTILRTNMPNINEFMSTNKFRARVMVEKVNRKTNAPRYEWFEFTLPEGNYSETMTIDLMNNAIVDNYLAVGRQNGVLESDIGVKFDTRNFRLGWDPVTKLVMPGVYTNEAFHPDIVLLPGCGVDFTQSRLNNLLGIRKRMPFQKGFQIMYEDLEGGNIPALLDVEKYEASIKEAQEIRGADFKPNPQDLEIVPVEKDSKERSYNLLEGDKNNTAYRSWFLAYNYGDAEKGVKSWTLLTTTDVTCGSQQVYWSLPDMMQDPVTFRPSTQVSNYPVVGVELLPVHAKSFYNEQAVYSQLIRQSTALTHIFNRFPENQILVRPPAPTITTVSENVPALTDHGTLPLRSSISGVQRVTITDARRRTCPYVHKALGIVAPKVLSSRTF
B3: HAdV-5 penton base protein, recombinant, soluble (natural protein)
chain: MRRAAMYEEGPPPSYESVVSAAPVAAALGSPFDAPLDPPFVPPRYLRPTGGRNSIRYSELAPLFDTTRVYLVDNKSTDVASLNYQNDHSNFLTTVIQNNDYSPGEASTQTINLDDRSHWGGDLKTILHTNMPNVNEFMFTNKFKARVMVSRLPTKDNQVELKYEWVEFTLPEGNYSETMTIDLMNNAIVEHYLKVGRQNGVLESDIGVKFDTRNFRLGFDPVTGLVMPGVYTNEAFHPDIILLPGCGVDFTHSRLSNLLGIRKRQPFQEGFRITYDDLEGGNIPALLDVDAYQASLKDDTEQGGGGAGGSNSSGSGAEENSNAAAAAMQPVEDMNDHAIRGDTFATRAEEKRAEAEAAAEAAAPAAQPEVEKPQKKPVIKPLTEDSKKRSYNLISNDSTFTQYRSWYLAYNYGDPQTGIRSWTLLCTPDVTCGSEQVYWSLPDMMQDPVTFRSTRQISNFPVVGAELLPVHSKSFYNDQAVYSQLIRQFTSLTHVFNRFPENQILARPPAPTITTVSENVPALTDHGTLPLRNSIGGVQRVTITDARRRTCPYVYKALGIVSPRVLSSRTF

Experiments:
Test in all cases: SPR
[1] = biological target: T1, recombinant human integrin α6β4
[2] = biological target: T2, recombinant human integrin α6β1 (human, UniProt P23229;P05556)
[3] = biological target: T1, recombinant human integrin α6β4
[4] = biological target: T2, recombinant human integrin α6β1; remark: listed apart in the source

Row | Binder | Kd [1] | Kd [2] | koff [3] | koff [4]
1 | B1 | 41.2 nM | 473 nM | 0.022 s⁻¹ | 0.011 s⁻¹
2 | B2 | 32.7 nM | 426 nM | 0.0049 s⁻¹ | –
3 | B3 | 95 nM | 1560 nM | 0.0045 s⁻¹ | 0.0059 s⁻¹
